# Reference: paper PMC7666581, “Atypical chemoreceptor arrays accommodate high membrane curvature” (Nature Communications, 2020)
# T1: CheR (classical Td CheR) (Treponema denticola, UniProt Q73PZ7)
# T1 construct: purified CheR; cloning and tag not described in main text; printed residues R79, Gly152, Val180, Y218
# T1 sequence (Q73PZ7 1-271): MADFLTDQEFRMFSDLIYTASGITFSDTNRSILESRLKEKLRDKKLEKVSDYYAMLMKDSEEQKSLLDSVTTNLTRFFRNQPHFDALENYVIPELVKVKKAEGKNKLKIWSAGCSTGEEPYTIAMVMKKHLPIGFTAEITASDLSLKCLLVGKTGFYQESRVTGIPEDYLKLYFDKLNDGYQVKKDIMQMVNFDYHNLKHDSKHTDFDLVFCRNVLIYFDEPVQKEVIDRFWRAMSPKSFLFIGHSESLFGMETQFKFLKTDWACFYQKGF
# T2: CheW-CheRlike (CheW-Rlike) (Treponema denticola, UniProt F7IUZ1)
# T2 construct: gene cheW-1; full-length fusion: N-terminal CheW domain, 28-residue linker, C-terminal CheR-like domain; poly-His tag (pET28a), E. coli BL21(DE3); mainly monomer
# T2 sequence (F7IUZ1 1-444): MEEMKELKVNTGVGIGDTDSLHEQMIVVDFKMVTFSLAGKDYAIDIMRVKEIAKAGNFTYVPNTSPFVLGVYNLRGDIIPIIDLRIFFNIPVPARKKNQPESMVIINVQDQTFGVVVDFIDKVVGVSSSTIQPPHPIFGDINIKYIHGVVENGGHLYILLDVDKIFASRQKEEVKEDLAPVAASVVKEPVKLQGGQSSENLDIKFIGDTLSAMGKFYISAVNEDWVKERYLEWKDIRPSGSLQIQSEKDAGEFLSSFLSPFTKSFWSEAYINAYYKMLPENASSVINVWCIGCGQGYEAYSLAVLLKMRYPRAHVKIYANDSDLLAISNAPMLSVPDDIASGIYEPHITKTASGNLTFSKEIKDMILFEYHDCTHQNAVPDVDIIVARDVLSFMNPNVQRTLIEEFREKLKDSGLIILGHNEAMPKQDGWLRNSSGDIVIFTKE
# Tests used:
# [1] = biological target: T1, CheR (classical Td CheR); test: isothermal titration calorimetry; assay type: binding
# [2] = biological target: T2, CheW-CheRlike (CheW-Rlike); test: isothermal titration calorimetry; assay type: binding
# [3] = biological target: Treponema denticola histidine kinase CheA (Treponema denticola) (UniProt O85747); test: SEC-MALS; 25 °C; each sample 10 mg/mL; 50 mM MOPS pH 7.5, 150 mM KCl, 5 mM MgCl2; mixed sample 1:1 molar CheA:CheW-R_(like); CheW-R_(like) pre-incubated 15 min with 5 mM DTT; GE S200 Increase (10/300)
# [4] = biological target: the molecule itself; test: as above
# [5] = biological target: the molecule itself; test: crystal structure; isolated P3 domain at 32 mg/ml, hanging drop, 0.1 M Imidazole pH 7.0, 25% PEG 400; data cut off at 1.5 Å
molecule,measurement,setting,value
C[S+](CC[C@H](N)C(=O)O)C[C@H]1O[C@@H](n2cnc3c(N)ncnc32)[C@H](O)[C@@H]1O (some centres unmarked) [S-adenosylmethionine],Kd,[1],20 ± 3.7 µM
same,Kd,[2],8.8 ± 1.9 µM
Treponema denticola CheW-CheR_(like) protein (TDE1492) (natural protein),stoichiometry N (CheW-R subunit per CheA dimer),[3],1
"Treponema denticola histidine kinase CheA (enzyme, UniProt O85747 1-801, looked up, Histidine kinase CheA of Treponema denticola ATCC 35405, the only CheA homolog in the genome; amplified from Td genomic DNA; Cloned NdeI/BamHI into pet28a; co-transcribed with TDE1492; also called Td CheA; CheA-F2; source: E. coli BL21-DE3, purified (Nickel-NTA, size exclusion)) MSDYLDINNEELLKDFFSEAEQQVEILESNVLVIEQNPEDRNSIDEIFRAAHTLKGGSATVEMLELSKFTHAMEDLLDEIRSGSVKVTGETVDLLLKSIDIIKLMLDARASGSIYSDDVSGIVNQLRSFIPAKAEKKSSKASAPKVSIPASVSPVSAPKVQASASNLDIKDYFSEYEILELAETIQKGEDLYAVIVKFDESNLMNSVGGIQVFAALKDYGSVLKTVPDFDALYEDEFHETVIYFLSSASDSKILEKAAFIGDVTLSASAERLDIKDKTPESPKPAKAAPAQSAPEASVSEVKVSEKTEEKPVQESKEQPSKPEKKQSQTSPQGSGHSSGSILRVDANRIDYLLNLVSETVITKASLNQSTIEFAELYDKFQNSSTIYKDKTRRLLDKMPEYLEKIQQGYDINSIKQDVLNEYSSLLEVFGDFDSLMKAAVTKFKSSSQNLGRISGELQEGVMKIRMVPISQIFSRFPRVVRDLSRDLNKNVQLVIEGEDTELDKSVVEDLLDPIMHCVRNSLDHGVESPEVRKGLGKPEQGILLLKASNEGNMIVIEVADDGHGIDVEAVKQKAVERGILHPNKSLTDVEAFQLVFAPGFSTSKTISSVSGRGVGLDVVKTHIEKLNGTVMVESEPNVGTRFIIKLPLTLAIIQGLLIRVGDEVYSIPITSVIESHRVKPDEINRIDNYEVFNVRDEVYSLLRLNRLFGITSAETDDDGYNYIVVVGTEEKKVGLMVDSLIGEEAVVIKPLKDQFTNSPGIAGASILGDGSVSLIIDVAQLLELGLKQEMQARERREASIW",stoichiometry N,[4],2
"Treponema denticola CheA P3 domain (dimerization domain) (domain or fragment, P3 (dimerization) domain of Treponema denticola CheA, with about 50 additional residues joining the canonical P3 helices; Cloned NdeI/EcoRI into pet28a; The printed residue number Tyr83 probably counts on the deposited construct and not on whole CheA; also called Td P3 domain; isolated P3 domain; source: E. coli BL21-DE3, purified (Nickel-NTA, size exclusion)) SILRVDANRIDYLLNLVSETVITKASLNQSTIEFAELYDKFQNSSTIYKDKTRRLLDKMPEYLEKIQQGYDINSIKQDVLNEYSSLLEVFGDFDSLMKAAVTKFKSSSQNLGRISGELQEGVMKIRMVP",binding result,[5],binds
